In one assay the target is T1, His-tagged mArfN37 (mouse).
T1 construct: Captured on the SPR chip through a covalently attached Tetra-His antibody; also called His-mArfN37; His-tagged mArf37; not shown: thrombin-cleavable poly-His tag
T1 chain: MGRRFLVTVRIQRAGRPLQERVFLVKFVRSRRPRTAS
Put plainly: SPR (Biacore), His-tagged mArfN37 captured by anti-His antibody, Hdm2 peptide as analyte, reference cell subtracted. On the procedure: (§1) Surface Plasmon Resonance. Binding studies were performed using a Biacore 3000 surface plasmon resonance (SPR) instrument (Biacore, Inc.). A Tetra-His™ Antibody (Qiagen, Inc.; Cat. #34670) was covalently attached to a carboxymethylated gold surface (C-1 chip; Biacore, Inc.). The carboxymethyl groups on the surface were activated with N-ethyl-N-(3-dimethylaminopropyl) carbodiimide (EDC) and N-hydroxysuccinimide (NHS) and the antibody was attached at pH 7.4 in 20 mM sodium phosphate buffer, 150 mM NaCl (PBS). Reactive sites remaining on the surface were blocked by reaction with ethanolamine. The His-tagged ligand was attached to the antibody by injecting a […] solution of the ligand in 10 mM HEPES, 150 mM NaCl, pH 7.4 (HBS-N buffer, Biacore) at a flow rate of 10 μL/Min through the flow cell. A reference cell was prepared similarly except that no His-tagged ligand was added. Binding was measured by flowing the non-His-tagged analyte through the reference and ligand-containing flow cells in sequence. Prior to injection of ligands, the chip surfaces were equilibrated in HBS-N buffer. Changes in the SPR response due to solvent differences and the injection process were monitored by injection of HBS-N buffer alone. Regeneration of the chip surface to remove bound analyte and ligand was accomplished by two 100 μL injections of 10 mM glycine, pH 2.0 through both flow cells. Data reported is-the difference in SPR signal between the flow cell containing analyte and the reference cell. Duplicate injections were made and the SPR response values reported are the average of these two injections.
A similar approach using short synthetic peptides and SPR was used to map the segments of Hdm2 that bind mArfN37 (FIG. 5c). […] The first of these as Arf-binding segment is termed “H1” and the second is termed segment “H2”.
On the technique in general: Surface plasmon resonance follows binding to a sensor surface in real time, without labels.

Assay [1] addresses T2, His-tagged Hdm2 210-304 (human, UniProt Q00987 210-304).
T2 construct: not shown: thrombin-cleavable poly-His tag from pET28a
Put plainly: SPR (Biacore), His-tagged Hdm2 210-304 captured by anti-His antibody, mouse Arf peptide as analyte, reference cell subtracted. Here is the method:
as §1
(§2) Two libraries of peptides 15 amino acids in length were synthesized based on the sequence of exon 1β of mouse p19^Arf and the entire sequence of human p14^Arf. The sequence for the first peptide in each library corresponded to the first 15 amino acids of the protein sequences. […] This approach yielded two libraries of overlapping peptides spanning mouse p19^Arf residues 1-64 and human p14^Arf residues 1-132. The ability of these peptides to bind Hdm2 fragments was determined using the surface plasmon resonance (SPR) technique with a Biacore 3000 instrument.

Assay [2] concerns the target T2, His-tagged Hdm2 210-304. The assay is described as follows: SPR (Biacore), His-tagged Hdm2 210-304 captured by anti-His antibody, human Arf peptide as analyte, reference cell subtracted. On the procedure:
as §1, §2

Where no end group is shown, it is not given here.

From patent US20040248198A1 (ST JUDE CHILDREN S RESEARCH HOSPITAL, published 2004) come the findings set out here.

T2 sequence (Q00987 210-304): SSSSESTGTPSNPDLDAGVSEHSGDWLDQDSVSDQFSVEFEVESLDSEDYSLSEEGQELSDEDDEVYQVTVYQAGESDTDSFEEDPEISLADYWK

B1: 215-229 (peptide)
peptide: STGTPSNPDLDAGVS
modifications: not fully specified
notes: also called Hdm2 library peptide, residues 215-229
With B1, the binding result in the assay with His-tagged mArfN37 is recorded as “no binding (tested: not given)”.

B2: 1-15 (peptide)
peptide: MGRRFLVTVRIQRAG
modifications: not fully specified
notes: also called mouse p19Arf library peptide, residues 1-15
For B2, the binding result with His-tagged Hdm2 210-304 [1] is on record as “binds”.

B3: 61-75 (peptide)
peptide: PRRPGHDDGQRPSGG
modifications: not fully specified
notes: also called human p14Arf library peptide, residues 61-75
For B3, the binding result with His-tagged Hdm2 210-304 [2] was “no binding (tested: not given)”.

B4: 295-309 (peptide)
peptide: PEISLADYWKCTSCN
modifications: not fully specified; cysteine pairing not given here
For the molecule B4, the binding result with His-tagged mArfN37 was “no binding (tested: not given)”.

B5: 56-70 (peptide)
peptide: GQQPLPRRPGHDDGQ
modifications: not fully specified
notes: also called human p14Arf library peptide, residues 56-70
With B5, the binding result with His-tagged Hdm2 210-304 [2] is recorded as “no binding (tested: not given)”.

B6: 116-130 (peptide)
peptide: GAAGRARCLGPSARG
modifications: not fully specified
notes: also called human p14Arf library peptide, residues 116-130
Turning to B6, in the assay with His-tagged Hdm2 210-304 [2], the binding result is on record as “no binding (tested: not given)”.

B7: 96-110 (peptide)
peptide: RARRCPGGLPGHAGG
modifications: not fully specified
notes: also called human p14Arf library peptide, residues 96-110
Turning to B7, the binding result with His-tagged Hdm2 210-304 [2] is given as “no binding (tested: not given)”.

B8: 26-40 (peptide)
peptide: HIPRLTGEWAAPGAP
modifications: not fully specified
notes: also called human p14Arf library peptide, residues 26-40
As to B8, the binding result in the assay with His-tagged Hdm2 210-304 [2] was “no binding (tested: not given)”.

B9: 71-85 (peptide)
peptide: RPSGGAAAAPRRGAQ
modifications: not fully specified
notes: also called human p14Arf library peptide, residues 71-85
Consider B9, for which the binding result in the assay with His-tagged Hdm2 210-304 [2] is recorded as “no binding (tested: not given)”.

B10: 330-344 (peptide)
peptide: LPEDKGKDKGEISEK
modifications: not fully specified
notes: also called Hdm2 library peptide, residues 330-344
B10: the binding result with His-tagged mArfN37 was “no binding (tested: not given)”.

B11: 66-80 (peptide)
peptide: HDDGQRPSGGAAAAP
modifications: not fully specified
notes: also called human p14Arf library peptide, residues 66-80
Regarding B11, in the assay with His-tagged Hdm2 210-304 [2], the binding result is recorded as “no binding (tested: not given)”.

B12: 210-224 (peptide)
peptide: SSSSESTGTPSNPDL
modifications: not fully specified
notes: also called Hdm2 library peptide, residues 210-224
Regarding B12, in the assay with His-tagged mArfN37, the binding result was “no binding (tested: not given)”.

B13: 245-259 (peptide)
peptide: FSVEFEVESLDSEDY
modifications: not fully specified
With B13, the binding result with His-tagged mArfN37 is reported as “binds”.

B14: 76-90 (peptide)
peptide: AAAAPRRGAQLRRPR
modifications: not fully specified
notes: also called human p14Arf library peptide, residues 76-90
Regarding B14, the binding result in the assay with His-tagged Hdm2 210-304 [2] is reported as “no binding (tested: not given)”.

B15: 235-249 (peptide)
peptide: WLDQDSVSDQFSVEF
modifications: not fully specified
For the molecule B15, in the assay with His-tagged mArfN37, the binding result was “binds”.

B16: 300-314 (peptide)
peptide: ADYWKCTSCNEMNPP
modifications: not fully specified; cysteine pairing not given here
notes: also called Hdm2 library peptide, residues 300-314
Consider B16, for which the binding result with His-tagged mArfN37 was “no binding (tested: not given)”.

B17: 51-65 (peptide)
peptide: RSQRLGQQPLPRRPG
modifications: not fully specified
notes: also called human p14Arf library peptide, residues 51-65
For B17, the binding result with His-tagged Hdm2 210-304 [2] is “no binding (tested: not given)”.

B18: 46-60 (peptide)
peptide: VLMLLRSQRLGQQPL
modifications: not fully specified
notes: also called human p14Arf library peptide, residues 46-60
In the case of B18, the binding result with His-tagged Hdm2 210-304 [2] is listed as “no binding (tested: not given)”.

B19: 265-279 (peptide)
peptide: GQELSDEDDEVYQVT
modifications: not fully specified
notes: also called Hdm2 library peptide, residues 265-279
B19: the binding result with His-tagged mArfN37 was “no binding (tested: not given)”.

B20: 325-339 (peptide)
peptide: LRENWLPEDKGKDKG
modifications: not fully specified
notes: also called Hdm2 library peptide, residues 325-339
Consider B20, for which the binding result with His-tagged mArfN37 is “no binding (tested: not given)”.

B21: 285-299 (peptide)
peptide: ESDTDSFEEDPEISL
modifications: not fully specified
notes: also called Hdm2 library peptide, residues 285-299
On to B21, for which, in the assay with His-tagged mArfN37, the binding result is “no binding (tested: not given)”.

B22: 106-120 (peptide)
peptide: GHAGGAAPGRGAAGR
modifications: not fully specified
notes: also called human p14Arf library peptide, residues 106-120
B22: the binding result with His-tagged Hdm2 210-304 [2] is on record as “no binding (tested: not given)”.

B23: 280-294 (peptide)
peptide: VYQAGESDTDSFEED
modifications: not fully specified
notes: also called Hdm2 library peptide, residues 280-294
With B23, the binding result with His-tagged mArfN37 is “no binding (tested: not given)”.

B24: 81-95 (peptide)
peptide: RRGAQLRRPRHSHPT
modifications: not fully specified
notes: also called human p14Arf library peptide, residues 81-95
Regarding B24, in the assay with His-tagged Hdm2 210-304 [2], the binding result is “no binding (tested: not given)”.

B25: 111-125 (peptide)
peptide: AAPGRGAAGRARCLG
modifications: not fully specified
notes: also called human p14Arf library peptide, residues 111-125
B25: the binding result with His-tagged Hdm2 210-304 [2] is reported as “no binding (tested: not given)”.

B26: 21-35 (peptide)
peptide: RVFVVHIPRLTGEWA
modifications: not fully specified
notes: also called human p14Arf library peptide, residues 21-35
For the molecule B26, the binding result with His-tagged Hdm2 210-304 [2] is “no binding (tested: not given)”.

B27: 31-45 (peptide)
peptide: TGEWAAPGAPAAVAL
modifications: not fully specified
notes: also called human p14Arf library peptide, residues 31-45
Regarding B27, in the assay with His-tagged Hdm2 210-304 [2], the binding result is on record as “no binding (tested: not given)”.

B28: 255-269 (peptide)
peptide: DSEDYSLSEEGQELS
modifications: not fully specified
As for B28, in the assay with His-tagged mArfN37, the binding result was “no binding (tested: not given)”.

B29: 335-349 (peptide)
peptide: GKDKGEISEKAKLEN
modifications: not fully specified
For B29, in the assay with His-tagged mArfN37, the binding result was “no binding (tested: not given)”.

B30: 320-334 (peptide)
peptide: NRCWALRENWLPEDK
modifications: not fully specified
notes: also called Hdm2 library peptide, residues 320-334
For the molecule B30, in the assay with His-tagged mArfN37, the binding result was “no binding (tested: not given)”.

B31: 310-324 (peptide)
peptide: EMNPPLPSHCNRCWA
modifications: not fully specified; cysteine pairing not given here
notes: also called Hdm2 library peptide, residues 310-324
B31: the binding result with His-tagged mArfN37 is on record as “no binding (tested: not given)”.

B32: 220-234 (peptide)
peptide: SNPDLDAGVSEHSGD
modifications: not fully specified
notes: also called Hdm2 library peptide, residues 220-234
Regarding B32, the binding result with His-tagged mArfN37 was “no binding (tested: not given)”.

B33: 315-329 (peptide)
peptide: LPSHCNRCWALRENW
modifications: not fully specified; cysteine pairing not given here
notes: also called Hdm2 library peptide, residues 315-329
B33: the binding result with His-tagged mArfN37 is “no binding (tested: not given)”.

B34: 260-274 (peptide)
peptide: SLSEEGQELSDEDDE
modifications: not fully specified
notes: also called Hdm2 library peptide, residues 260-274
As for B34, the binding result with His-tagged mArfN37 is reported as “no binding (tested: not given)”.

B35: 101-115 (peptide)
peptide: PGGLPGHAGGAAPGR
modifications: not fully specified
With B35, the binding result with His-tagged Hdm2 210-304 [2] is “no binding (tested: not given)”.

B36: 41-55 (peptide)
peptide: AAVALVLMLLRSQRL
modifications: not fully specified
notes: also called human p14Arf library peptide, residues 41-55
Consider B36, for which the binding result with His-tagged Hdm2 210-304 [2] is recorded as “no binding (tested: not given)”.

B37: 91-105 (peptide)
peptide: HSHPTRARRCPGGLP
modifications: not fully specified
notes: also called human p14Arf library peptide, residues 91-105
Turning to B37, the binding result with His-tagged Hdm2 210-304 [2] is reported as “no binding (tested: not given)”.

B38: 230-244 (peptide)
peptide: EHSGDWLDQDSVSDQ
modifications: not fully specified
notes: also called Hdm2 library peptide, residues 230-244
For the molecule B38, the binding result in the assay with His-tagged mArfN37 is “no binding (tested: not given)”.
